Literature values as cited in paper PMC7101603.

Target: Activin-A mature (Homo sapiens) (UniProt P08476)

Kd: 100 nM
Substance: Activin βA pro-peptide pro-peptide (from UniProt P08476)
